Source: paper PMC7019923

T1: squid p30 (AUF1 homolog) (Aedes albopictus (cDNA from C6/36 cells), UniProt A0ABM1XVA0 2-281)
T1 sequence: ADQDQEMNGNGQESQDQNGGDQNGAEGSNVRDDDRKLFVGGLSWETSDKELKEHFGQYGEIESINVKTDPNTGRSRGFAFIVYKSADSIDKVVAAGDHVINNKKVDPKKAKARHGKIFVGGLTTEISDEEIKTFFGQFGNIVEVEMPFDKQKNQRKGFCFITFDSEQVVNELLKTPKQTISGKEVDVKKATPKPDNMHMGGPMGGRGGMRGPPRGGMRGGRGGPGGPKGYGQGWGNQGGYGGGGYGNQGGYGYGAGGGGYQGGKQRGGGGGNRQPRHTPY

T2: squid p32 (AUF1 homolog) (Aedes albopictus (cDNA from C6/36 cells), UniProt A0A023EP16 2-301)
T2 sequence: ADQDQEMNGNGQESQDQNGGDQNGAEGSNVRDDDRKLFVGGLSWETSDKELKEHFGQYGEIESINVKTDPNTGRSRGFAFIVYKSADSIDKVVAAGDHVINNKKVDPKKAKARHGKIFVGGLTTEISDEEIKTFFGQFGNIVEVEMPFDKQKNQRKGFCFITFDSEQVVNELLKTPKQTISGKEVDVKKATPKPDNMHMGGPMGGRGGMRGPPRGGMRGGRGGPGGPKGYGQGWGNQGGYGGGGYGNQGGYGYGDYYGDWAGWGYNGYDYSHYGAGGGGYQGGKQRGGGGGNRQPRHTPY


How the values were obtained:
squid p30 (AUF1 homolog) = molecular target: T1, squid p30 (AUF1 homolog); assay: fluorescence intensity titration; conditions: protein: recombinant; tags: none after cleavage (SUMO fusion removed by SUMO protease)
squid p32 (AUF1 homolog) = molecular target: T2, squid p32 (AUF1 homolog); assay: fluorescence intensity titration; conditions: protein: recombinant; tags: none after cleavage (SUMO fusion removed by SUMO protease)

Binder | Kd (squid p30 (AUF1 homolog)) [nM] | Kd (squid p32 (AUF1 homolog)) [nM]
UAUUUAGUGGUGUUAG (ssRNA) [AU/GU-rich RNA] | 13 | 130
CUAAGAUGCUCGCUGC (ssRNA) [random RNA] | 250 | 630
